Values quoted from earlier work as cited in patent US20250341526A1, “NOVEL DYES” (Quantum-Si Incorporated, priority 2024, published 2025).
“Also recorded” adds a separate entry of the source.

System: amino acid at a terminal position of a polypeptide
Conditions: Table 1, ClpS proteins; amino acid at terminal position; inferred from literature and/or demonstrated by the inventors; cited from earlier work

| Molecule | Binding Pref. |
| --- | --- |
| PS406: ClpS amino acid recognition protein, SEQ ID NO: 29 (protein) MPDATTTPRTKTLTRTARPPLHKVILVNDDFTPREFVVRLLKAEFRTTGDEAQRIMITAHMKGSCVVAVFTREIAESKATRATETARAEGFPLLFTTEPEE | F, Y, W |
| PS419: ClpS amino acid recognition protein, SEQ ID NO: 42 (protein) MEKEQSLCKEKTHVELSEPKHYKVVFHNDDFTTMDFVVKVLQLVFFKSQLQAEDLTMKIHLEGSATAGIYSYDIAQSKAQKTTQMAREEGFPLRLTVEPEDN | F, Y, W, L |
| PS414: ClpS amino acid recognition protein, SEQ ID NO: 37 (protein) MQAAGNEPPDPQNPGDVGNGGDGGNQDGSNTGVVVKTRTRTRKPAMYKVLMLNDDYTPMEFVVHVLERFFQKNREEATRIMLHVHRRGVGVCGVYTYEVAETKVTQVMDLARQNQHPLQCTIEKE | F, Y, W, L |
| PS369: ClpS amino acid recognition protein, SEQ ID NO: 2 (protein) MTSTLRARPARDTDLQHRPYPHYRIIVLDDDVNTFQHVVNCLVTFLPGMTRDQAWAMAQQVDGEGSAVVWTGPQEQAELYHVQLGNHGLTMAPLEPV | F, Y, W, L |
| PS411: ClpS amino acid recognition protein, SEQ ID NO: 34 (protein) MTRPDAPEYDDDLAVEPAEPELARPPLYKVVLHNDDFTPMEFVVEVLQEFFNMDSEQAVQVMLAVHTQGKATCGIFTRDIAETKSYQVNEYARECEHPLMCDIEAAD | F, Y, W, L |
| PS407: ClpS amino acid recognition protein, SEQ ID NO: 30 (protein) MPSNKRQMCLSDIKNSFNESGIVDWHISPRLANEPSEEGDSDLAVQTVPPELKRPPLYAVVLLNDDYTPMEFVIEILQQYFAMNLDQATQVMLTVHYEGKGVAGVYPRDIAETKANQVNNYARSQGHPLLCQIEPKD | F, Y, W, L |
| PS416: ClpS amino acid recognition protein, SEQ ID NO: 39 (protein) MTSQTDTLVKPNIQPPSLFKVIYINDSVTTMEFVVESLMSVFNHSADEATRLTQLVHEEGAAVVAILPYELAEQKGMEVTLLARNNGFPLAIRLEPAV | F, Y, W, L |
| PS413: ClpS amino acid recognition protein, SEQ ID NO: 36 (protein) MMKQCGSYFLIKAVQDFKPLSKHRSDTDVITETKIQVKQPKLYTVIMYNDNYTTMDFVVYVLVEIFQHSIDKAYQLMMQIHESGQAAVALLPYDLAEMKVDEVTALAEQESYPLLTTIEPA | F, Y, W, L |
| PS423: ClpS amino acid recognition protein, SEQ ID NO: 46 (protein) MAPTPAGAAVLDKQQQRRHKHASRYRVLLHNDPVNTMEYVVESLRQVVPQLSEQDAIAVMVEAHNTGVGLVIVCDIEPAEFYCEQLKTKGLTSSIEPED | F, Y, W |
| PS410: ClpS amino acid recognition protein, SEQ ID NO: 33 (protein) MGDDDQSSREGEGDVAFQTADPELKRPSLYRVVLLNDDYTPMEFVVHILEQFFAMNREKATQVMLAVHTQGKGVCGVYTKDIAETKAALVNDYSRENQHPLLCEVEELDDESR | F, W, L |
| PS408: ClpS amino acid recognition protein, SEQ ID NO: 31 (protein) MTDPPSKGREDVDLATRTKPKTQRPPLYKVLLLNDDFTPMEFVVHILERLFGMTHAQAIEIMLTVHRKGVAVVGVFSHEIAETKVAQVMELARRQQHPLQCTMEKE | F, Y, W, L |
| PS418: ClpS amino acid recognition protein, SEQ ID NO: 41 (protein) MSDHNIDHDTSVAVHLDVVVREPPMYRVVLLNDDFTPMEFVVELLMHFFRKTAEQATQIMLNIHHEGVGVCGTYPREIAETKVAQVHQHARTNGHPLKCRMEPS | F, Y, W, L |
| PS412: ClpS amino acid recognition protein, SEQ ID NO: 35 (protein) MATKREGSTLLEPTAAKVKPPPLYKVLLLNDDYTPMEFVVLVLKKFFGIDQERATQIMLKVHTEGVGVCGVYPRDIAHTKVEQVVDFARQHQHPLQCTMEES | F, Y, W, L |
| PS370: ClpS amino acid recognition protein, SEQ ID NO: 3 (protein) MFNSLGTVLDPKKSKAKYPEARVIVLDDNFNTFQHVANCLLAIIPRMCEQRAWDLTIKVDKAGSAEVWRGNLEQAELYHEQLFSKGLTMAPIEKT | F, L |
| PS396: ClpS amino acid recognition protein, SEQ ID NO: 24 (protein) MSDNDVALKPKIKSKPKLERPKLYKVILVNDDFTPREFVIAVLKMVFRMSEETGYRVMLTAHRLGTSVVVVCARDIAETKAKEAVDFGKEAGFPLMFTTEPEE | F, W |
| PS405: ClpS amino acid recognition protein, SEQ ID NO: 28 (protein) MVSIGAATVACAEGRPIFSGYFDWLAAMPETVTVPRTRLRPKTERPKLHKVILVNDDYTPREFVVTVLKGEFHMSEDQAQRVMITAHRRGVCVVAVFTKDVAETKATRASDAGRAKGYPLQFTTEPEE | F, Y, W |
| PS404: ClpS amino acid recognition protein, SEQ ID NO: 27 (protein) MPVSVTAPQTKTKTKPKVERPKLYKVILVNDDFTPREFVVRVLKAEFRMSEDQAAKVMMTAHQRGVCVVAVFTRDVAETKATRATDAGRAKGYPLLFTTEPEE | F, Y, W |
| PS422: ClpS amino acid recognition protein, SEQ ID NO: 45 (protein) MTQIKPQTIPDTDVISQTQSDWQMPDLYAVIMHNDDYTTMDFVVFLLNAVFDKPIEQAYQLMMQIHQTGRAVVAILPYEIAEMKVDEATSLAEQEQFPLFISIEQA | F, Y, W, L |
| PS415: ClpS amino acid recognition protein, SEQ ID NO: 38 (protein) MALPETRTKIKPDVNIKEPPNYRVIYLNDDKTSMEFVIGSLMQHFSYPQQQAVEKTEEVHEHGSSTVAVLPYEMAEQKGIEVTLDARAEGFPLQVKIEPAER | F, Y, W |
| PS417: ClpS amino acid recognition protein, SEQ ID NO: 40 (protein) MSNLDTDVLIDEKVKVVTTEPEKYRVILLNDDVTPMDFVINILVSIFKHSTDTAKDLTLKIHKEGSAIVGVYTYEIAEQKGIEATNESRQHGFPLQVKIERENTL | F, Y, W |
| PS397: ClpS amino acid recognition protein, SEQ ID NO: 25 (protein) MSDNEVAPKRKTRVKPKLERPRLYKVILVNDDYTPRDFVVMVLKAIFRMSEEAGYRVMMTAHKLGTSVVVVCARDIAETKAKEATDLGKEAGFPLMFTTEPEE | F, Y, W |
| PS421: ClpS amino acid recognition protein, SEQ ID NO: 44 (protein) MTTPNKRPEFEPEIGLEDEVGEPRKYKVLLHNDDYTTMDFVVQVLIEVFRKSETEATHIMLTIHEKGVGTCGIYPAEVAETKINEVHTRARREGFPLRASMEEV | F, Y, W, L |
| PS398: ClpS amino acid recognition protein, SEQ ID NO: 26 (protein) MPLKAQNRSIVGRRDEWPPPTTQSSSETKSESKRVSDTGADTKRKTKTVPKVEKPRLYKVILVNDDYTPREFVLVVLKAVFRMSEDQGYKVMITAHQKGSCVVAVYTRDIAETKAKEAVDLAKEIGFPLMFRTEPEE | F, W |
| PS420: ClpS amino acid recognition protein, SEQ ID NO: 43 (protein) MSDYSNQISQAGSGVAEDASITLPPERKVVFYNDDFTTMEFVVDVLVSIFNKSHSEAEELMQTVHQEGSSVVGVYTYDIAVSRTNLTIQAARKNGFPLRVEVE | F, Y, W, L |
| PS409: ClpS amino acid recognition protein, SEQ ID NO: 32 (protein) MPARLTDIEGEPNTDPVEDVLLADPELKKPQMYAVVMYNDDYTPMEFVVDVLQNHFKHTLDSAISIMLAIHQQGKGIAGIYPKDIAETKAQTVNRKARQAGYPLLSQIEPQG | F, Y, W, L |

Same assay, conditions: Table 2; amino acid at terminal position (phosphotyrosine also internal); inferred from literature and/or demonstrated by the inventors; cited from earlier work

| Molecule | Binding Pref. |
| --- | --- |
| H. sapiens p62 fragment 1-180: amino acid recognition protein, SEQ ID NO: 121 | K, R, H,; also recorded: W, F, Y |
| H. sapiens p62 fragment 126-180: amino acid recognition protein, SEQ ID NO: 122 | K, R, H,; also recorded: W, F, Y |
| Rattus norvegicus p62 protein: amino acid recognition protein, SEQ ID NO: 124 | K, R, H,; also recorded: W, F, Y |
